Experimental data reported in patent US5811393A (The Childrens Medical Center Corp., priority 1993, dated 1998).

Key:
[1] = Stability of growth-stimulatory activity to acid, heat and DTT (read out in BALB/c 3T3 [3H]-thymidine assay); assay type: physicochemical
Experimental: Conditioned medium was assayed for growth factor activity directly, as described below, using either fibroblasts (i.e., BALB/c mouse 3T3 cells), epithelial cells (i.e., human keratinocytes), or smooth muscle cells (i.e., bovine aortic smooth muscle cells, BASMC). Alternatively, CM was first fractionated by fast protein liquid chromatography (FPLC, Pharmacia, Piscataway, N.J.) by applying 500 ml of the CM to a TSK-heparin 5PW column (8×75 mm, TOSOHAAS, Philadelphia, Pa.). The column was washed with 10 column volumes of equilibration buffer (0.2M NaCl, 0.01M Tris-HCl, pH 7.5), and bound protein was eluted with a 40 ml linear gradient of 0.2-2M NaCl in 0.01M Tris-HCl , pH 7.4 at 1 ml/min. Fractions (2.5 ml) were tested for growth factor activity by measuring the effect of aliquots of the fractions on DNA synthesis in, or the proliferation of, BALB/c mouse 3T3 cells; such activity was monitored by assaying the incorporation of [^3 H]-thymidine into DNA and/or by measuring the increase in cell number. Measurement of DNA synthesis in BALB/c mouse 3T3 cells was performed as described by Shing et al. (223 Science 1296, 1984, hereby incorporated by reference). One unit of BALB/c mouse 3T3 stimulation activity was defined as the amount of growth factor required to stimulate half-maximal DNA synthesis in BALB/c mouse 3T3 cells under the conditions described in Shing et al. (supra). To measure DNA synthesis in bovine capillary endothelial cells, cells were trypsinized and re-plated sparsely (1×10^4 cells/well) with 400 μl of Dulbecco's modified Eagle's medium (DMEM, GIBCO, Grand Island, N.Y.) supplemented with 10% bovine calf serum (GIBCO, Grand Island, N.Y.) and antibiotics (100 units/ml penicillin and 100 μg/ml streptomycin sulfate, GIBCO, Grand Island, N.Y.) in 48-well plates (Costar, Cambridge, Mass.). After 24 hours of incubation, the medium was replaced with the same volume of DMEM supplemented with 2% bovine calf serum, antibiotics, 1 μM thymidine and 0.5% bovine serum albumin. After 24 hours of incubation, the test samples were added to the wells. Eighteen hours later, [^3 H]-thymidine (0.6 uCi/well, New England Nuclear, Wilmington, Del.) was added. After an additional 5 hours, each plate was treated by the same procedure as used to harvest the BALB/c mouse 3T3 cells to measure the incorporation of [^3 H]-thymidine into the DNA of the cells. To measure DNA synthesis in bovine aortic smooth muscle cells (from Dr. H. Weich, Children's Hospital, Boston), the cells were trypsinized and re-plated sparsely (1×10^4 cells/well) with 400 μl of DMEM supplemented with 10% Colorado calf serum (Colorado Serum Company) and antibiotics (100 units/ml penicillin and 100 μg/ml streptomycin sulfate, GIBCO, Grand Island, N.Y.) in 48-well plates. […]

[2] = system: bovine aortic smooth muscle cells (BASMC); test: Bovine aortic smooth muscle cell proliferation by cell counting; assay type: cell-based; conditions: 100 pg/ml; cells counted after three days, 1% calf serum
Experimental: Bovine aortic smooth muscle cell proliferation was also assayed by counting cell number following growth factor stimulation. In these experiments, cells were plated sparsely in 24 well plates in DMEM/10% bovine calf serum/1% GPS (100% GPS is glutamine 29.2 mg/ml, penicillin 10,000 units/ml, streptomycin sulfate 10,000 μg/ml; GIBCO, Grand Island, N.Y.) at 10^4 cells/well. Test samples were then added and, after three days, cells were removed by trypsinization and counted in a Coulter counter (Coulter, Hialeah, Fla.).
BASMC were plated in DMEM, 10% calf serum, 100 U/ml penicillin, 100 μg/ml streptomycin sulfate at 5×10^3 cells/well in a 24 well plate, and, after attachment of the cells (e.g., following an overnight incubation), the media was replaced with DMEM, 1% calf serum, and penicillin and streptomycin as above. HB-EHM, recombinant human EGF (Creative Biomolecules, Hopkinton, Mass.), or recombinant PDGF (Creative Biomolecules, Hopkinton, Mass.) was then added to the wells. Cells were counted after three days.

EGF receptor = EGF receptor autophosphorylation in A-431 cells (anti-phosphotyrosine Western blot); assay type: cell-based, human; conditions: 5 ng/ml, 15 minutes
Experimental: This was shown by plating A-431 cells in 6-well plates and culturing in Dulbecco's Modified Eagle's Medium (DMEM) containing 10% fetal bovine serum and antibiotics. […] After 15 minutes, the cells were washed with ice-cold phosphate-buffered saline containing 0.4 mm EDTA, 10 mM Na-fluorate, 10 mM Na-pyrophosphate and 0.4 mM Na-orthovanadate, scraped and lysed in 100 μl of PI/RIPA buffer [1% NP-40 (Pierce, Rockford, Ill.), 1% deoxycholate (Aldrich, Milwaukee, Wis.), 0.1% SDS, 1% aprotinin (Boehringer-Mannheim, Indianapolis, Ind.), 1 mM PMSF (Pierce), 2 mM EDTA (Sigma), 10 mM Na-fluorate, (Sigma, St. Louis, Mo.), 10 mM Na-pyrophosphate (Baker, Phillipsburg, N.J.), 0.4 mM Na-orthovanadate, (Aldrich), 10 mM iodoacetamide (Aldrich) in phosphate buffered saline]. Thirty μl of supernatant clarified by spinning for a 5 minute period in a microfuge was analyzed by reducing SDS/polyacrylamide gel electrophoresis (6% polyacrylamide gel). […] A standard of phosphorylated EGF receptor was purchased from UBI (Lake Placid, N.Y.).

[3] = system: EGF receptors on A-431 cells; test: Competitive [125I]EGF binding to A-431 cells; set-up: species or system human
Experimental: Competitive binding assays were used to measure this interaction and were performed as follows.

[4] = system: bovine capillary endothelial cells; test: Proliferation / DNA synthesis of bovine capillary endothelial cells; assay type: cell-based; conditions: purified form
Experimental: (§1) Conditioned medium was assayed for growth factor activity directly, as described below, using either fibroblasts (i.e., BALB/c mouse 3T3 cells), epithelial cells (i.e., human keratinocytes), or smooth muscle cells (i.e., bovine aortic smooth muscle cells, BASMC). Alternatively, CM was first fractionated by fast protein liquid chromatography (FPLC, Pharmacia, Piscataway, N.J.) by applying 500 ml of the CM to a TSK-heparin 5PW column (8×75 mm, TOSOHAAS, Philadelphia, Pa.). The column was washed with 10 column volumes of equilibration buffer (0.2M NaCl, 0.01M Tris-HCl, pH 7.5), and bound protein was eluted with a 40 ml linear gradient of 0.2-2M NaCl in 0.01M Tris-HCl , pH 7.4 at 1 ml/min. Fractions (2.5 ml) were tested for growth factor activity by measuring the effect of aliquots of the fractions on DNA synthesis in, or the proliferation of, BALB/c mouse 3T3 cells; such activity was monitored by assaying the incorporation of [^3 H]-thymidine into DNA and/or by measuring the increase in cell number. Measurement of DNA synthesis in BALB/c mouse 3T3 cells was performed as described by Shing et al. (223 Science 1296, 1984, hereby incorporated by reference). One unit of BALB/c mouse 3T3 stimulation activity was defined as the amount of growth factor required to stimulate half-maximal DNA synthesis in BALB/c mouse 3T3 cells under the conditions described in Shing et al. (supra). […]

[5] = system: bovine aortic smooth muscle cells; test: [3H]-thymidine incorporation into smooth muscle cell DNA; assay type: cell-based; conditions: purification steps of HB-EHM from 8 L U-937 conditioned medium
Experimental: as §1

B1: HB-EHM: novel heparin binding growth factor with EGF-homologous segment, purified from U-937 lymphoma cell conditioned medium, about 22 kD (protein)
chain: RVTLSSKPQALATPNKEEHGKRKKKGKGLGKKRDPCLRKYKDFCIHGECKYVKELRAPSCICHPGYHGERCHGLS
modifications: O-linked glycosylation (suggested by O-glycanase treatment; the threonines predicted at positions 2 and 12 of the form first sequenced were not detected in protein sequencing)
[1]; 5 mM DTT for 2 hours, 3T3 [3H]-thymidine readout
  growth-stimulatory activity after exposure to DTT: destroyed completely
[1]; 0.1M glycine-HCl, pH 2.5 for 2 hours
  activity after acid treatment with glycine-HCl: not lost
[1]; 90° C. for 5 minutes, 3T3 [3H]-thymidine readout
  growth-stimulatory activity after heating: not destroyed
[1]; pH 2.5 for 2 hours, 3T3 [3H]-thymidine readout
  growth-stimulatory activity after exposure to pH 2.5: resistant
[2]
  increase in BASMC proliferation: 2.5 fold
EGF receptor
  autophosphorylation of the EGF receptor (170 kDa protein): triggered autophosphorylation
[3]; maximal competition, confluent A-431 cells
  inhibition of the binding of [125I]EGF to A-431 cells: ~100%
[3]; purified HB-EHM
  binding to EGF receptors on A-431 cells: found to bind
[4]
  proliferation of bovine capillary endothelial cells: did not stimulate proliferation
[5]
  Maximal Stimulation: 0.5 ng/mL
